Results: patent publication US20180135109, “EVALUATION OF CAS9 MOLECULE/GUIDE RNA MOLECULE COMPLEXES” (EDITAS MEDICINE, INC., published 2018)

Biological target: Cas9 (Streptococcus pyogenes, UniProt Q99ZW2 SEQ:1-1368)
Assay: DSF, no thermal shift with alien gRNA; 10 mM Hepes pH 7.5, 150 mM NaCl; 1 uM gRNA
Conditions: gRNA scaffold; printed as encoding DNA
Description: DSF was also used to examine Cas9 molecule/gRNA molecule complexes. S. pyogenes Cas9 alone, S. pyogenes Cas9 with 1 μM S. pyogenes gRNA, and S. pyogenes Cas9 with 1 μM S. aureus gRNA were tested in H150 (10 mM Hepes pH 7.5, 150 mM NaCl). The DNA sequences encoding the gRNA molecules used in these experiments were: […]

Cas9, sequence (Q99ZW2 whole entry): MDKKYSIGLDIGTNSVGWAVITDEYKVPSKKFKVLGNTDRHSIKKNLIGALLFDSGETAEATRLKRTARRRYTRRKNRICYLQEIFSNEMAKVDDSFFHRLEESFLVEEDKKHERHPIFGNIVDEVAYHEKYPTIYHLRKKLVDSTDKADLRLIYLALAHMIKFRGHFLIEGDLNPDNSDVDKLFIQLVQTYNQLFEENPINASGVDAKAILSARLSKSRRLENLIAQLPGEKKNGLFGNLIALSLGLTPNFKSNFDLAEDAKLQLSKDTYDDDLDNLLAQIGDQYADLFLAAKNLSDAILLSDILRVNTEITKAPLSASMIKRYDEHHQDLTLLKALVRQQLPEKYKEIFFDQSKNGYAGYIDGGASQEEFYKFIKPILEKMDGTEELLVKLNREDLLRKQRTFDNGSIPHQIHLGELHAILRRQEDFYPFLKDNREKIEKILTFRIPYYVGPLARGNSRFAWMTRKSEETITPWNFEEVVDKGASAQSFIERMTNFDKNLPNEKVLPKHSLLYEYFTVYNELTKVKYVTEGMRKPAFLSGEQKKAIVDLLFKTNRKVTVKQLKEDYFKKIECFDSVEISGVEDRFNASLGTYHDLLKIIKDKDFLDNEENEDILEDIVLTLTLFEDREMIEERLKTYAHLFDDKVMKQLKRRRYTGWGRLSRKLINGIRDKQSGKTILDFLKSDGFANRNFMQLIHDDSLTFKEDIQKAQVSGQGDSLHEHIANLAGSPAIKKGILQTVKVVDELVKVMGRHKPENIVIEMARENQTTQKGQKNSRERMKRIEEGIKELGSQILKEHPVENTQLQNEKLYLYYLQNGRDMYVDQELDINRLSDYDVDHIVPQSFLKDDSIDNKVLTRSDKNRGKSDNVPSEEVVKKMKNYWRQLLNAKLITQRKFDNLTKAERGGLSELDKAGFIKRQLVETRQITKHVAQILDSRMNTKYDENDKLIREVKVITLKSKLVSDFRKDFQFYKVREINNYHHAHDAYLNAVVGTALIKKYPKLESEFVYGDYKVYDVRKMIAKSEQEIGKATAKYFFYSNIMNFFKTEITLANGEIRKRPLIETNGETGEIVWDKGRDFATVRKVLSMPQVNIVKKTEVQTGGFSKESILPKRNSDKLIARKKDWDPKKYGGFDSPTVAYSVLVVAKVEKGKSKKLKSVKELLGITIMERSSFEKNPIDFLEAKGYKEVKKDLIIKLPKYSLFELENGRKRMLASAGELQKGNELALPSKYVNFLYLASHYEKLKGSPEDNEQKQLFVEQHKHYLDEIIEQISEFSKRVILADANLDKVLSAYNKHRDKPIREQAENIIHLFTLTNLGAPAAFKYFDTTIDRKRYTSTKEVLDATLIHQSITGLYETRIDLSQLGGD

B1: S. aureus gRNA scaffold (ssRNA)
RNA: GUUUUAGUACUCUGGAAACAGAAUCUACUAAAACAAGGCAAAAUGCCGUGUUUAUCUCGUCAACUUGUUGGCGAGAUUUU
- binding result: no binding
